Test results published in article PMC10584130, “Effects of HSP70 chaperones Ssa1 and Ssa2 on Ste5 scaffold and the mating mitogen-activated protein kinase (MAPK) pathway in Saccharomyces cerevisiae” (PLOS ONE, 2023).

Molecular target: T1, Ste5-Myc9 (S. cerevisiae, UniProt P32917 1-917)
T1 construct: Ste5 MAPK scaffold protein of S. cerevisiae; source: S. cerevisiae (EY1775 ste5 bar1; EY3136/EY3141), expressed from plasmids (pSKM19 2μ; pSKM90), in whole cell extract; not shown: Myc9, C-terminal, kept
T1 sequence (looked up): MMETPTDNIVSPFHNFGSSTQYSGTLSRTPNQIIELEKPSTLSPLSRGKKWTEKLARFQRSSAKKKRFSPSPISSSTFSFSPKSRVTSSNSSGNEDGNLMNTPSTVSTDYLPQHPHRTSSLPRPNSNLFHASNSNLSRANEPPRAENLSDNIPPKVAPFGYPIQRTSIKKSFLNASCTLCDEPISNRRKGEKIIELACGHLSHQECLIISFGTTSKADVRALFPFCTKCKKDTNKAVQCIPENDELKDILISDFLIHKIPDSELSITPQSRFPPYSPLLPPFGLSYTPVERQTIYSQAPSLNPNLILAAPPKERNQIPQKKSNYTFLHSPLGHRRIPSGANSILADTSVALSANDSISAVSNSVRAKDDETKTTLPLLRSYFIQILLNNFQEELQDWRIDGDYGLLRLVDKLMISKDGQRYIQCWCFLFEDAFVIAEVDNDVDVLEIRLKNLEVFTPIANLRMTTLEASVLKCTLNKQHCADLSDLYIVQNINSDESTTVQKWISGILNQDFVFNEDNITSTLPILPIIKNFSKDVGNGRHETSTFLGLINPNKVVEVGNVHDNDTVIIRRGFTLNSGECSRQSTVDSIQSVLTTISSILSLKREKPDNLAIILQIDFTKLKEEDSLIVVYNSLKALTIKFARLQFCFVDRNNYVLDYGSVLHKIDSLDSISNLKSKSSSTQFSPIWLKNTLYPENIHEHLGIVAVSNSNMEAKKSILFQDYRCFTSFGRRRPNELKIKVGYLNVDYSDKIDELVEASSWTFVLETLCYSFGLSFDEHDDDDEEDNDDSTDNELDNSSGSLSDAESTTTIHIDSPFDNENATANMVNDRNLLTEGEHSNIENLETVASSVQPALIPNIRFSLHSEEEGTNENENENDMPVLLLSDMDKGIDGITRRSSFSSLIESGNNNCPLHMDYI
Assay: affinity purification with mass spectrometry; Ste5-Myc9 IP'd with 9E10 from 10 mg yeast whole cell extract (EY1775, cells without or with 50 nM α factor for 2 hours); 20 mM Tris-HCl pH 7.2, 125 mM potassium acetate, 0.1% Tween 20; Coomassie-stained SDS gel, 70 kDa band digested with trypsin, LC-MS/MS; ImageJ densitometry of the gel
Conditions: partners not purified

B1: Hsp70 Ssa1 (endogenous) (natural protein)
chain: not shown
notes: Hsp70 chaperone Ssa1 of S. cerevisiae; also called 70 kDa protein; band a; source: endogenous, S. cerevisiae EY1775 whole cell extract
- ratio Ste5-Myc9:70 kDa Hsp70 (Coomassie densitometry), with α factor: 0.67
- ratio Ste5-Myc9:70 kDa Hsp70 (Coomassie densitometry), without α factor: 1.45
